From patent publication US5621079A, “Neuropeptide Y receptor” (Merck & Co., Inc., priority 1995, dated 1997)

Target: T1, murine NPY Yx receptor (Mus musculus, UniProt Q61212)
T1 construct: identified a 371 amino acid open reading frame; expressed in transfected cells; host or cells: COS-7 cells, transient (pcDNA3 vector pVE2863), membranes
T1 sequence (Q61212 1-371): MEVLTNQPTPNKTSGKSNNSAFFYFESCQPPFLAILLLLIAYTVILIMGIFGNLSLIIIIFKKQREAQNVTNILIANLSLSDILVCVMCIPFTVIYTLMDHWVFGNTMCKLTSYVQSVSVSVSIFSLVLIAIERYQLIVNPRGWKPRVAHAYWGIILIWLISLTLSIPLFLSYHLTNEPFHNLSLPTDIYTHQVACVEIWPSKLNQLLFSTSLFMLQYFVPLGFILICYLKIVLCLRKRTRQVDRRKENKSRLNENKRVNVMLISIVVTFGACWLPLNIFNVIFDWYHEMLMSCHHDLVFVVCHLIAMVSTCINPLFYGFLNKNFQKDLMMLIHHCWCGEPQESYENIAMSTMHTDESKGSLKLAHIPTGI
Test: 125I-PYY competition binding to membranes of COS-7 cells transfected with the murine NPY Yx receptor
Details: COS-7 membranes (50 μg protein), 125I-PYY 90 pM, 2 hours at room temperature; read-out: IC50 (concentration of peptide causing 50% inhibition of 125I-PYY binding)
Procedure: Using electroporation, COS-7 cells were transfected with the pcDNA3 expression vector containing the genomic DNA for the murine NPY Yx receptor (pVE2863). Two days post transfection, cells were dissociated with enzyme-free dissociation buffer, centrifuged at 1000 rpm for 10 minutes at 4° C., and resuspended in 10 mM Tris, pH 7.4 containing […] (phenylmethylsulfonyl fluoride), 10 μM phosphoramidon, and 40 μg/ml bacitracin. The cell suspension was homogenized with a glass homogenizer, and centrifuged at 2200 rpm for 10 minutes at 4° C. to remove cell debris. The plasma membrane fraction was recovered by centrifuging the supernatant at 18,000 rpm in a Sorvall SS-34 rotor for 15 minutes at 4° C. The membrane pellet was resuspended in the Tris/PMSF/phosphoramidon/bacitracin buffer by trituration 5 times using a 25 g needle and syringe. The membranes were stored frozen at -80° C. until use.
After 2 hours at room temperature, the incubation was filtered over GF/C filters, and the radioactivity bound to the filters was quantified with a Packard gamma counter.

IC50 [nM] | Substance
16 | NPY2-36 [NPY(2-36)]
9 | [Leu31, Pro34]NPY [[Leu^31, Pro^34]NPY]
134 | NPY13-36 [NPY(13-36)]

Substance | IC50 [nM]
Neuropeptide Y [NPY] | 6
